Usually stoichiometry N stands for a count of units in the complex or per binding partner. Usually Kd stands for the constant that tells how readily two partners part at equilibrium.

Assay [1] addresses MGG_01005 (Magnaporthe oryzae dynein light chain Tctex-type 1, dynlt1/3), wild type, recombinant (Magnaporthe oryzae) (UniProt G4NCW2). Put plainly: AUC.
The target is the same in assay [2]. Briefly: SEC; gel filtration chromatography of MGG_01005 (Supplementary Figure S3). (Size exclusion chromatography separates by hydrodynamic size, large species first.)
The target is the same in assay [3]. Briefly: ITC. In general terms: ITC needs no label: the signal is the heat of the interaction.
For assay [4] the target is unchanged. Put plainly: ITC. This is another data set of the same source.

For the substance “MGG_01005 (Magnaporthe oryzae dynein light chain Tctex-type 1, dynlt1/3), wild type, recombinant (from UniProt G4NCW2 1-153) (natural protein)”, the stoichiometry N in assay [1] and in assay [2] was 2 throughout.

As for MoDyn1I2^117–150 peptide, the Kd in assay [3] was 5.39 µM. Further, the values for the stoichiometry N in assay [3] and in assay [4] were 0.55 and 0.4 to 0.7, respectively.

Take MoDyn1I2^122–141 peptide: in assay [3], the Kd came out at 15.2 µM, the dH was -13.7 kJ/mol and the stoichiometry N was 1.13.

The values above are taken from paper PMC5834530.
